Protein production data for 15 sequences are collected here from a protein production outcome set (Wang et al. 2014).
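Also: failed if final PepcDB status was selected cloned or expressed and not failed if soluble or beyond.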

The series in a line: label from the status in PepcDB records.
Turning to “MLINKTKRAEQNLNNLPFLALQAEQIEFLGSSAEFKTQIIELIRNAKKRIYVTALYWQKDEAGQEILDEIYRVKQENPHLDVKVLIDWHRAQRNLLGAEKSATNADWYCEQRQTYQLPDDPNMFFGVPINTREVFGVLHVKGFVFDDTVLYSGASINNVYLHQFEKYRYDRYQKITHAELADSMVNFINDYLLDFSAVYPLDVTNRPRTKEIRGNIRAYRKDLAQNGEYSLKSAVKLPNVLSVSPLFGLGASGNELNQVIEDLFLQVQKKLVICTPYFNFPRTLQHKIATLLENGKRVEIIVGDKVANDFYIPPEQPFKMAGALPYLYESNLRRFCEKFETQIESGQLVVRLWRDGDNTYHLKGVWVDDRYILLTGNNLNPRAWRLDAENGLLIYDPQQQLLAQVEKEQNQIRQHTKVLKHYTELEELNQYPEPVQKLLKKFARIKADKLVKMILLEHHHHHH”, the protein production entry is listed as “not failed”.
Under “MLISHSDLNQQLKSAGIGFNATELHGFLSGLLCGGLKDQSWLPLLYQFSNDNHAYPTGLVQPVTELYEQISQTLSDVEGFTFELGLTEDENVFTQADSLSDWANQFLLGIGLAQPELAKEKGEIGEAVDDLQDICQLGYDEDDNEEELAEALEEIIEYVRTIAMLFYSHFNEGEIESKPVLH” stands “not failed”; under “MLKFPLCCSELSLEPKILAFESQLVSGRRDTIKVSAGKIGNFSLGSIFKSCETCGAKGAIECPGCKGTGKNKKNGNMFERWKCFDCQGFGMKSCPKCGKGGLTPEQRGER”, “failed”; under “MLKGIPKIIPPELLKVLCEMGHGDQLVIADGNFPAESIGKNAIVVRMDGHGGGEILKAILTVFPLDTYVDKPATLMEKVPGDTVATPIWDVYAGLIKEHDERGADAIGSLERFAFYEQAKNAYCVIASGESAQYANLILQKGVVFNAE”, “not failed”.
Under “MLKHFGSKVRNLRVTRNITREDFCGDETELSVRQLARIESGQSIPNLTKAHYIAKQLNVKLDILTGGESLELPKRYKELKYLILRIPTYADAERLKLRECQFDHIFEEFYDNLPEDECLAIDSLQAKFEVYQTGDINFGVEVLCECFDKVKYKEKYTLNDLIIIDLFLTCAVVSKFNNRAFTKEVFQTICKTLISQNHKLTAEDLFWFNHVLLNCVFVGLCLNSEECLAEMLEVSRQTMVSTHDFHKMPLYFMYQWKYFITIDNDIKSAENAYQQSIMFSKMIDDKHLIKKLELEWQEDITGH” stands “failed”; under “MLKKLIEKVKSLTSVIKIVFFISVLVLIIVEMIHLKRTISVEQLKSVFGQLSPMNLFLIILVGVIAVLPTTGYDFVLNGLLRTDKSKRYILQTSWCINTFNNLSGFGGLIDIGLRMAFYGKKGQEKSDLREVTRFLPYLISGLSFISVIALIMSHIFHAKASVDYYYLVLIGASMYFPVIYWISGHKGSHYFGDMPSSTRIKLGVVSFFEWGCAAAAFIIIGYLMGIHLPVYKILPLFCIGCAVGIVSLIPGGLGSFELVLFTGFAAEGLPKETVVAWLLLYRLAYYIIPFFAGIYFFIHYLGSQINQRYENVPKELVSTVLQTMVSHLMRILGAFLIFSTAFFENITYIMWLQKLGLDPLQEQMLWQFPGLLLGVCFILLARTIDQKVKNAFPIAIIWITLTLFYLNLGHISWRLSFWFILLLLGLLVIKPTLYKKQFIYSWEERIKDGIIIVSLMGVLFYIAGLLFPIRAHITGGSIERLHYIIAWEPIALATLILTLVYLCLVKILQGKSCQIGDVFNVDRYKKLLQAYGGSSDSGLAFLNDKRLYWYQKNGEDCVAFQFVIVNNKCLIMGEPAGDDTYIREAIESFIDDADKLDYDLVFYSIGQKLTLLLHEYGFDFMKVGEDALVNLETFTLKGNKYKPFRNALNRVEKDGFYFEVVQSPHSQELLNSLEEISNTWLEGRPEKGFSLGYFNKDYFQQAPIALVKNAEHEVVAFANIMPNYEKSIISIDLMRHDKQKIPNGVMDFLFLSLFSYYQEKGYHYFDLGMAPLSGVGRVETSFAKERMAYLVYHFGSHFYSFNGLHKYKKKFTPLWSERYISCSRSSWLICAICALLMEDSKIKIVK”, “failed”; under “MLKKLLLVSTVLLLSACSSRQYSESSLTQSKIDIYEQTQNYVALSDLYKAELKKEDSEEIREALAAALLHLEDPESALFYLKPNIENGASFQSYYLQASALGDLGKYPQAIKAALLSLEENPDNPETENLLGILYGHEYQYEKSRRYFQKAQLHFYDSNTIANNLAVLDIAEGNYKRAAQRLLPVYRSGQANEQVMANLILSMAKEQNLEFIQAVLGDKHTKKEIERIYQSLQRFNSLDIDTKKSV”, “failed”.
Under “MLKLHLSEEERVIFASNLVASKKRFTKMEKGRFGNFLDNAKIISHIINPCLYDVEDATGYFLYSFTLNDERPK” stands “failed”.
In the case of “MLKLSCNVTDHIHNLFSNSRRIFVPVHRQTRPISCFQLKKEPLRAILSADHGNSSVRVADTVSGTSPADRLRFGRLMEDGFSYKEKFIVRSYEVGINKTATIETIANLLQEVACNHVQNVGFSTDGFATTLTMRKLHLIWVTARMHIEIYKYPAWSDVVEIETWCQSEGRIGTRRDWILKDCATGEVIGRATSKWVMMNQDTRRLQRVTDEVRDEYLVFCPPEPRLAFPEENNSSLKKIPKLEDPAQYSMLGLKPRRADLDMNQHVNNVTYIGWVLESIPQEIIDTHELKVITLDYRRECQQDDIVDSLTTSETPNEVVSKLTGTNGSTTSSKREHNESHFLHILRLSENGQEINRGRTQWRKKSSR”, the protein production entry is reported as “failed”.
Under “MLKSKRKEIILSRLEQNKSVTLDELTSILETSESTVRRDLDELESAGFLKRVHGGAELPYSLGQELSNQEKAIKNVQKKLDIARQTAKLIAKQDVIFIDAGTTTELLIDFLPHEQLTVVTNSIHHAAKLVDRGIKTIIIGGAVKHSTDASIGQVAINQIRQITVDKAFLGMNGIDEVYLTTPDLEEAAIKEAIINNSQQTFILMDSSKIGQVTFAKVKEINDINLVTNKTDSELMTIIKEKMKVIQV” stands “failed”; under “MLKTPSDAAVAGCLSLLLEVSGNPKAGNVDREHDFDDLKFEHFLASAAGAFPAFLEVAEKRIIGEGVLRAVKESMRWHRAENVHFGAFLLLVPLISSWDAG”, “not failed”.
Under “MLKTYQKLLAMGIFLIVLCSGNAAFAATNQVGGLSNVGFFHDYLIEPFSALLKGVAGLFHGEYGLSIILVTIIVRIVVLPLFVNQFKKQRIFQEKMAVIKPQVDSIQVKLKKTKDPEKQKELQMEMMKLYQEHNINPLAMGCLPMLIQSPIMIGLYYAIRSTPEIASHSFLWFSLGQSDILMSLSAGIMYFVQAYIAQKLSAKYSAVPQNPAAQQSAKLMVFIFPVMMTIFSLNVPAALPLYWFTSGLFLTVQNIVLQMTHHKSKKTAALTESVK” stands “failed”; under “MLLAMALLIIGLLLVAYGADRLVFAASILCRTFGIPPLIIGMTVVSIGTSLPEIIVSAAASLHGQLDLAVGAALGSNITNILLILGLAALVRPFTVHSDVLRRELPLMLFVSVVAGSVLHDGQLSRSDGIFLLLLAVLWLLFIVKIARLAERQGNDSLTREQLAELPREGGLPVAFLWLGIALVIMPMATRMVIDNATVLANYFAMSELTLGLTVIAVGTSLPELATAIAGVRKGENDIAVGNLIGANIFNLAIVLGLPALIAPGEINPLAFGRDYSVMLLVSVVFALLCWRHPRQIGRGAGILLTGGFIVWLAMLYWLSPLLVG”, “failed”; under “MLLENFYKIIHIKEREDGKQEIEIELNPGHVLYQGHFPGQPVVPGVCTLQIIKESAEQIASQPLQYVQIASSKFLSAINPLETPLLQLFIRLEKTEEHLFKLQAEGICNGKEFIKLKAVLMASKYQLEHHHHHH”, “not failed”.
Under “MLLEVIPLTLPLLLTLLPIVVILVMLLVFRKAADVSGIIGWLAISVVAWLGFQTAPEVILRSTAAGFIRSFSVSLIVATSLLQMALMEKTGALRRITIFIRTIASDNRAVQIMMINIGFGTLMVAVGATPVSILPPILLAMGYSTYVAIALPAIGYDSLCTYALLGAPIVVFVDIANSFLGKGNEIALHQAGMVFYMFLPVVSTMIGFCMLWIVGKWQAIRDGWLPCLLTGAVIGVVARFTNQYDNLVVLTGVLCGIAVIAAMAAYLVVTGGKVIDRSLLSAEEREFAAAMPLWRAFMPWTLLVILILVLNVPQDLFSWLYRTMKLPIAGLTADGKPLDTRALWQAYTWILVSTILAVPFLKPTGEQLRETVRTWVRRAPRPVFAAAVFFAIGEIMNMAGYDMAAGRFVVPSMVTVLADSSALAFQGMYGEVVAFIGLFGGFITGSEASTIAMFAKYTMTTAKNLDMPLSGLIIVTAGLAFGGGLASVISPAKLQNAAAAIDRIGEEGKVIRIAFVFALLLTLVTSLFVVVLLTVNGMGRVS” stands “failed”.
